Test results from publication PMC3792046 (PLoS ONE, 2013).

Legend:
SB105-A10-PEG-biotin = assay: SPR; BIAcore X100; biotinylated SB105-A10 immobilised on SA streptavidin sensorchip (560 RU, 0,12 pmol/mm^2); gp41 (0.61-10 nM) or gp120 (12.5-100 nM) injected in HBS-EP (10 mM HEPES pH 7.4, 150 mM NaCl, 3 mM EDTA, 0.005% surfactant P20), 3 min association, 10 min wash; streptavidin-alone surface for blank subtraction; steady-state affinity from RU at equilibrium
gp120 = conditions: ref [71], [72]; cited from earlier work

Substance	Kd (SB105-A10-PEG-biotin)	recognition of positively charged regions on gp120 (gp120)
HIV-1 glycosilated recombinant gp41 ectodomain (amino acids 546-682) (from UniProt P04578 546-682) (domain or fragment)	3.9 nM	
cellulose sulfate		recognize positively charged regions on gp120
